Series [1] deals with T1, HsRad52 protein (HsRad521-212) (Homo sapiens, UniProt P43351).
T1 construct: hexahistidine (N, cleaved yes); made in house; host or cells: E. coli JM109 (DE3), pET15-b
T1 sequence (P43351 1-212): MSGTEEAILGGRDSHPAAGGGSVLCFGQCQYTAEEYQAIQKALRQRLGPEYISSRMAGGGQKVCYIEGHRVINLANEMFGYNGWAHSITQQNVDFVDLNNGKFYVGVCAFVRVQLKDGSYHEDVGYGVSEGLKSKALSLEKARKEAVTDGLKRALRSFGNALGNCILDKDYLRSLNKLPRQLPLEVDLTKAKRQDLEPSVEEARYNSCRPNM
The series is described as follows: Screening for HsRad52-binding compounds by one-dimensional 1H-NMR. The conditions noted are these: calculated from signal intensity of the NMR spectrum; binding force of Compound A defined as 1. On the procedure: Among the ligand candidate compounds obtained in Example 8, one candidate compound was in view of the binding free energy change (ΔG) obtained by AutoDock and solubility. The compound was dissolved in DMSO-d6 to be adjusted to 455.7 μM. The HsRad521-212 protein prepared in Example 3 was dissolved to 152 μM using buffer solution A (dissolved in heavy water to 10 mM Tris-dll, pH 7.5)/200 mM KCl). Using them, two types of samples namely the ligand candidate compound alone and the ligand candidate compound to which the HsRad52 protein was added at 1:1 were prepared.
The final concentration of the ligand candidate compound is 21.7 μM.
The final concentrations of the ligand candidate compound and the HsRad52 protein are 21.7 μM, respectively.
One-dimensional ^1H-NMR of the individual samples was measured, to observe whether or not any change existed between prior to and after the addition of HsRad52 protein. Consequently, the NMR spectrum of a sample of ID AK968-41170131 with a chemical name of cis-6-[4-(4-isobutyl-phenyl)-5-methyl-thiazol-2-ylcarbamoyl]-3,4-dimethyl-cyclohex-3-enec arboxylic acid (Compound A, −11.71 kcal/mol) as such ligand candidate compound is shown in FIGS. 5 through 7. […] In FIG. 6, a slight increase of the base line due to the mixing with the protein can be observed, but apparently, Compound A-derived two signals around 7.5 ppm disappeared.
Herein, all the NMR spectra were taken in deuterium, using Bruker DRX500 NMR spectrophotometer at 298 K.
Using such method, the plural ligand candidate compounds obtained in Example 8 were adjusted to various concentrations to measure the NMR spectra. Compounds detected with the interaction with HsRad52 are shown below in Table 4. Herein, the strength of a binding force relatively calculated from the signal intensity of the NMR spectrum is shown as relative binding force, provided that the binding force of the Compound A is defined as 1.

The next series addresses T2, HsRad52(1-212) wild type (Homo sapiens, UniProt P43351 SEQ:1-212).
T2 sequence: T1 sequence (P43351 1-212)
The series can be described thus: EMSA; 50 mM Hepes-KOH pH 7.5, 40 mM KCl, 1 mM MgCl2, 37 C, glutaraldehyde fixed; 0.25-2 uM protein; complex formation inhibited by Compound A. As to conditions: tags: His6 removed by thrombin; chain copies: 11 (undecameric ring, stated); label: 5'-32P.

For series [2], the system named is SAT-1 single-stranded DNA. The series can be described thus: Gel shift assay: single-stranded DNA binding of HsRad521-212 point mutants. As to conditions: 0.25 to 2 μM mutant; compared with wild type HsRad521-212. On the procedure: The single-stranded and double-stranded DNAs binding activities of the six types of point mutants thus prepared from HsRad521-212 were detected by gel shift assay method. The substrate DNA used by the method was prepared as described below. The pGsat4 of double-stranded DNA was prepared by inserting a 198-bp DNA fragment from human α-satellite into a plasmid PGEM-T East vector (manufactured by Promega). The 3.2-kb plasmid DNA was prepared by a gentle lysis method using sarcosyl, without alkali modification of the host E. coli, so as to avoid the irreversible denaturation. As the single-stranded DNA, a 50-base oligonucleotide purified by HPLC as shown in SEQ ID NO:2 was purchased from Roche Biochemical.
The 5′ terminus of the oligonucleotide was labeled with radioactivity in the presence of [γ^32P] ATP using T4 polynucleotide kinase (New England Biolabs) and then purified on a column Chromaspin-10 (manufactured by Clontech).
For gel shift assay, a reaction mixtures containing final concentratins of 50 mM Hepes-KOH (pH 7.5), 40 mM KCl, 1 mM MgCl2, 0.1 mg/ml BSA, 1 mM DTT, 2% glycerol and 0.25 to 2 μM mutants of HsRad521-212 was used. For single-stranded DNA binding assay, 1 μl of 1 μM ^32P-labeled SAT-1 single-stranded DNA (nucleotide) was mixed with 9 μl of the reaction mixture, which was incubated at 37° C. for 5 minutes. Subsequently, 1 μl of 12% […] solution was added, to immobilize HsRad52 and the single-stranded DNA. After incubating for 20 minutes, a 6-fold volume of staining solution for electrophoresis was added. The reaction mixture was resolved by 1% agarose gel electrophoresis in 0.5×TBE buffer at 3.3 V/cm and ambient temperature. After electrophoresis, the gel was dried for detection by autoradiography. The amount of the free single-stranded DNA was assayed by an image analyzer BAS2500 manufactured by Fuji Film. […] Compared with the wild type HsRad521-212, the single-stranded DNA binding activity of all of the point mutants was lowered.

Residue numbers refer to the chain shown, from its start. Names may count otherwise.

Experimental for HsRad52(1-212) wild type: For gel shift assay, a reaction mixtures containing final concentratins of 50 mM Hepes-KOH (pH 7.5), 40 mM KCl, 1 mM MgCl₂, 0.1 mg/ml BSA, 1 mM DTT, 2% glycerol and 0.25 to 2 μM mutants of HsRad52₁₋₂₁₂ was used. For single-stranded DNA binding assay, 1 μl of 1 μM ³²P-labeled SAT-1 single-stranded DNA (nucleotide) was mixed with 9 μl of the reaction mixture, which was incubated at 37° C. for 5 minutes. Subsequently, 1 μl of 12% glyceraldehyde solution was added, to immobilize HsRad52 and the single-stranded DNA. After incubating for 20 minutes, a 6-fold volume of staining solution for electrophoresis was added. The reaction mixture was resolved by 1% agarose gel electrophoresis in 0.5×TBE buffer at 3.3 V/cm and ambient temperature. After electrophoresis, the gel was dried for detection by autoradiography. The amount of the free single-stranded DNA was assayed by an image analyzer BAS2500 manufactured by Fuji Film.
Subsequently, the mixture was fixed with 0.2% glutaraldehyde for 20 minutes and electrophoresed on 1% agarose gel.

In the case of `CC1=C(C)CC(C(=O)Nc2nc(-c3ccc(C(C)C)cc3)c(C)s2)C(C(=O)O)C1` (stereo not drawn) [Compound B, 6-[4-(4-Isopropyl-phenyl)-5-methyl-thiazol-2-ylcarbamoyl]-3,4-dimethyl-cyclohex-3-enecarboxylic acid], the “Relative Binding force” value in series [1] is 0.5.
Still for that read-out and setting: the figure for `CC1=C(C)CC(C(=O)Nc2nc(-c3ccc(C)cc3C)c(C)s2)C(C(=O)O)C1` (stereo not drawn) [D, 6-[4-(2,4-Dimethyl-phenyl)-5-methyl-thiazol-2-ylcarbamoyl]-3,4-dimethyl-cyclohex-3-enecarboxylic acid] is 0.2.
Same read-out and setting: with `CCCc1ccc(-c2nc(NC(=O)C3CC(C)=C(C)CC3C(=O)O)sc2C)cc1` (stereo not drawn) [E, 3,4-Dimethyl-6-[5-methyl-4-(4-propyl-phenyl)-thiazol-2-ylcarbamoyl]-cyclohex-3-enecarboxylic acid] the figure was 0.5; with `CCCCc1ccc(-c2nc(NC(=O)C3C4CCC(O4)C3C(=O)O)sc2C)cc1` (stereo not drawn) [C, 3-[4-(4-Butyl-phenyl)-5-methyl-thiazol-2-ylcarbamoyl]-7-oxa-bicyclo[2.2.1]heptane-2-carboxylic acid], 0.5.

B1: SAT-1 50-mer (ssDNA)
DNA: ATTTCATGCTAGACAGAAGAATTCTCAGTAACTTCTTTGTGCTGTGTGTA
Consider B1, for which the binding result with HsRad52(1-212) wild type is “binds”.

B2: R55A: point mutant of HsRad521-212, arginine at position 55 substituted with alanine (protein)
chain: MSGTEEAILGGRDSHPAAGGGSVLCFGQCQYTAEEYQAIQKALRQRLGPEYISSAMAGGGQKVCYIEGHRVINLANEMFGYNGWAHSITQQNVDFVDLNNGKFYVGVCAFVRVQLKDGSYHEDVGYGVSEGLKSKALSLEKARKEAVTDGLKRALRSFGNALGNCILDKDYLRSLNKLPRQLPLEVDLTKAKRQDLEPSVEEARYNSCRPNMALGHPQLQQVTSPSRPSHAVIPADQDCSSRSLSSSAVESEATHQRKLRQKQLQQQFRERMEKQQVRVSTPSAEKSEAAPPAPPVTHSTPVTVSEPLLEKDFLAGVTQELIKTLEDNSEKWAVTPDAGDGVVKPSSRADPAQTSDTLALNNQMVTQNRTPHSVCHQKPQAKSGSWDLQTYSADQRTTGNWESHRKSQDMKKRKYDPS
Take B2: the “Single-stranded DNA binding activity” value in series [2] is reported as “lost most of the binding activity to the single-stranded DNA”.

B3: Y65A: point mutant of HsRad521-212, tyrosine at position 65 substituted with alanine (protein)
chain: B2 chain with A55R, Y65A
Regarding B3, in series [2], the “Single-stranded DNA binding activity” value is “lost most of the binding activity to the single-stranded DNA”.

B4: H69A: point mutant of HsRad521-212, histidine at position 69 substituted with alanine (protein)
chain: B2 chain with A55R, H69A
For B4, in series [2], the “Single-stranded DNA binding activity” value is “lost most of the binding activity to the single-stranded DNA”.

B5: R70A: point mutant of HsRad521-212, arginine at position 70 substituted with alanine (protein)
chain: B2 chain with A55R, R70A
Consider B5, for which, in series [2], the “Single-stranded DNA binding activity” value is “lost most of the binding activity to the single-stranded DNA”.

The values above are taken from patent US20070031849A1, “Three-dimensional structure of DNA recombination/repair protein and use thereof” (priority 2001, published 2007).
